Test results published in patent publication US20230406885A1, “CYCLIC PEPTIDES FOR TRAPPING INTERLEUKIN-1 BETA” (MERCK SHARP & DOHME LLC, priority 2022, published 2023).
*1 amine or outer side, *2 acyl side, *3 side chain or, on linkers, in order; H or OH if unused. [ ]: non-standard residue; d: D form. TyrEtNAc = L-tyrosine O-ethyl acetamide, (S)-3-(4-(2-acetamidoethoxy)phenyl)-2-aminopropanoic acid, CC(=O)NCCOc1ccc(C[C@H](N[*:1])C(=O)[*:2])cc1; 3Pal4Ph4CO2H = (S)-4-(5-(2-amino-2-carboxyethyl)pyridin-2-yl)benzoic acid, O=C([C@H](Cc1ccc(-c2ccc(C(=O)[*:3])cc2)nc1)N[*:1])[*:2]; Pro(trans-4-NH2) = O=C([C@@H]1C[C@@H](N[*:3])CN1[*:1])[*:2]; Bip(4'-COOH) = N[C@@H](Cc1ccc(-c2ccc(C(=O)O)cc2)cc1)C(=O)O; 1Nal(3S-Me) = C[C@@H](c1cccc2ccccc12)[C@H](N)C(=O)O; hPhe(4-CF3) = N[C@@H](CCc1ccc(C(F)(F)F)cc1)C(=O)O; Ala(pyrimidin-5-yl) = N[C@@H](Cc1cncnc1)C(=O)O; Phe(4-COOH) = N[C@@H](Cc1ccc(C(=O)O)cc1)C(=O)O; Trp(7-aza) = N[C@@H](Cc1c[nH]c2ncccc12)C(=O)O; h3Pal(5-CN) = N#Cc1cncc(CC[C@H](N)C(=O)O)c1; hTyr = N[C@@H](CCc1ccc(O)cc1)C(=O)O; hPhe = N[C@@H](CCc1ccccc1)C(=O)O; dDab = NCC[C@@H](N)C(=O)O; dNMeA = CN[C@H](C)C(=O)O; Dab = NCC[C@H](N)C(=O)O; Dap = NC[C@H](N)C(=O)O

B1: SEQ ID NO: 111 (peptide)
peptide: cyclo([TyrEtNAc]W[Phe(4-COOH)]G[Pro(trans-4-NH2)][1Nal(3S-Me)]D[dNMeA]G[Bip(4'-COOH)]KS[dA][hPhe(4-CF3)])
SMILES: CC(=O)NCCOc1ccc(C[C@@H]2NC(=O)[C@H](CCc3ccc(C(F)(F)F)cc3)NC(=O)[C@@H](C)NC(=O)[C@H](CO)NC(=O)[C@H](CCCCN)NC(=O)[C@H](Cc3ccc(-c4ccc(C(=O)O)cc4)cc3)NC(=O)CNC(=O)[C@@H](C)N(C)C(=O)[C@H](CC(=O)O)NC(=O)[C@H]([C@@H](C)c3cccc4ccccc34)NC(=O)[C@@H]3C[C@@H](N)CN3C(=O)CNC(=O)[C@H](Cc3ccc(C(=O)O)cc3)NC(=O)[C@H](Cc3c[nH]c4ccccc34)NC2=O)cc1
B2: SEQ ID NO: 109 (peptide)
peptide: cyclo([TyrEtNAc]W[Phe(4-COOH)]G[Pro(trans-4-NH2)][1Nal(3S-Me)]D[dNMeA]G[Bip(4'-COOH)]KG[dNMeA][hTyr])
SMILES: CC(=O)NCCOc1ccc(C[C@@H]2NC(=O)[C@H](CCc3ccc(O)cc3)NC(=O)[C@@H](C)N(C)C(=O)CNC(=O)[C@H](CCCCN)NC(=O)[C@H](Cc3ccc(-c4ccc(C(=O)O)cc4)cc3)NC(=O)CNC(=O)[C@@H](C)N(C)C(=O)[C@H](CC(=O)O)NC(=O)[C@H]([C@@H](C)c3cccc4ccccc34)NC(=O)[C@@H]3C[C@@H](N)CN3C(=O)CNC(=O)[C@H](Cc3ccc(C(=O)O)cc3)NC(=O)[C@H](Cc3c[nH]c4ccccc34)NC2=O)cc1
B3: SEQ ID NO: 11 (peptide)
peptide: cyclo([3Pal4Ph4CO2H]W[Phe(4-COOH)]G[Pro(trans-4-NH2)][1Nal(3S-Me)]D[dNMeA]G[Bip(4'-COOH)]W[Dap][dA][hTyr])
SMILES: C[C@@H]1C(=O)NCC(=O)N[C@@H](Cc2ccc(-c3ccc(C(=O)O)cc3)cc2)C(=O)N[C@@H](Cc2c[nH]c3ccccc23)C(=O)N[C@@H](CN)C(=O)N[C@H](C)C(=O)N[C@@H](CCc2ccc(O)cc2)C(=O)N[C@@H](Cc2ccc(-c3ccc(C(=O)O)cc3)nc2)C(=O)N[C@@H](Cc2c[nH]c3ccccc23)C(=O)N[C@@H](Cc2ccc(C(=O)O)cc2)C(=O)NCC(=O)N2C[C@H](N)C[C@H]2C(=O)N[C@@H]([C@@H](C)c2cccc3ccccc23)C(=O)N[C@@H](CC(=O)O)C(=O)N1C
B4: SEQ ID NO: 112 (peptide)
peptide: cyclo([TyrEtNAc]W[Phe(4-COOH)]G[Pro(trans-4-NH2)][1Nal(3S-Me)]D[dNMeA]G[Bip(4'-COOH)]KS[dA][hTyr])
SMILES: CC(=O)NCCOc1ccc(C[C@@H]2NC(=O)[C@H](CCc3ccc(O)cc3)NC(=O)[C@@H](C)NC(=O)[C@H](CO)NC(=O)[C@H](CCCCN)NC(=O)[C@H](Cc3ccc(-c4ccc(C(=O)O)cc4)cc3)NC(=O)CNC(=O)[C@@H](C)N(C)C(=O)[C@H](CC(=O)O)NC(=O)[C@H]([C@@H](C)c3cccc4ccccc34)NC(=O)[C@@H]3C[C@@H](N)CN3C(=O)CNC(=O)[C@H](Cc3ccc(C(=O)O)cc3)NC(=O)[C@H](Cc3c[nH]c4ccccc34)NC2=O)cc1
B5: SEQ ID NO: 113 (peptide)
peptide: cyclo([TyrEtNAc]W[Phe(4-COOH)]G[Pro(trans-4-NH2)][1Nal(3S-Me)]D[dNMeA]G[Bip(4'-COOH)][Ala(pyrimidin-5-yl)]G[dDab][h3Pal(5-CN)])
SMILES: CC(=O)NCCOc1ccc(C[C@@H]2NC(=O)[C@H](CCc3cncc(C#N)c3)NC(=O)[C@@H](CCN)NC(=O)CNC(=O)[C@H](Cc3cncnc3)NC(=O)[C@H](Cc3ccc(-c4ccc(C(=O)O)cc4)cc3)NC(=O)CNC(=O)[C@@H](C)N(C)C(=O)[C@H](CC(=O)O)NC(=O)[C@H]([C@@H](C)c3cccc4ccccc34)NC(=O)[C@@H]3C[C@@H](N)CN3C(=O)CNC(=O)[C@H](Cc3ccc(C(=O)O)cc3)NC(=O)[C@H](Cc3c[nH]c4ccccc34)NC2=O)cc1
B6: SEQ ID NO: 114 (peptide)
peptide: cyclo([TyrEtNAc]W[Phe(4-COOH)]G[Pro(trans-4-NH2)][1Nal(3S-Me)]D[dNMeA]G[Bip(4'-COOH)][Trp(7-aza)]G[dDab][h3Pal(5-CN)])
SMILES: CC(=O)NCCOc1ccc(C[C@@H]2NC(=O)[C@H](CCc3cncc(C#N)c3)NC(=O)[C@@H](CCN)NC(=O)CNC(=O)[C@H](Cc3c[nH]c4ncccc34)NC(=O)[C@H](Cc3ccc(-c4ccc(C(=O)O)cc4)cc3)NC(=O)CNC(=O)[C@@H](C)N(C)C(=O)[C@H](CC(=O)O)NC(=O)[C@H]([C@@H](C)c3cccc4ccccc34)NC(=O)[C@@H]3C[C@@H](N)CN3C(=O)CNC(=O)[C@H](Cc3ccc(C(=O)O)cc3)NC(=O)[C@H](Cc3c[nH]c4ccccc34)NC2=O)cc1
B7: SEQ ID NO: 116 (peptide)
peptide: cyclo([TyrEtNAc]W[Phe(4-COOH)]G[Pro(trans-4-NH2)][1Nal(3S-Me)]D[dNMeA]G[Bip(4'-COOH)]W[Dab][dA][hTyr])
SMILES: CC(=O)NCCOc1ccc(C[C@@H]2NC(=O)[C@H](CCc3ccc(O)cc3)NC(=O)[C@@H](C)NC(=O)[C@H](CCN)NC(=O)[C@H](Cc3c[nH]c4ccccc34)NC(=O)[C@H](Cc3ccc(-c4ccc(C(=O)O)cc4)cc3)NC(=O)CNC(=O)[C@@H](C)N(C)C(=O)[C@H](CC(=O)O)NC(=O)[C@H]([C@@H](C)c3cccc4ccccc34)NC(=O)[C@@H]3C[C@@H](N)CN3C(=O)CNC(=O)[C@H](Cc3ccc(C(=O)O)cc3)NC(=O)[C@H](Cc3c[nH]c4ccccc34)NC2=O)cc1
B8: SEQ ID NO: 110 (peptide)
peptide: cyclo([TyrEtNAc]W[Phe(4-COOH)]G[Pro(trans-4-NH2)][1Nal(3S-Me)]D[dNMeA]G[Bip(4'-COOH)]KL[dA][hTyr])
SMILES: CC(=O)NCCOc1ccc(C[C@@H]2NC(=O)[C@H](CCc3ccc(O)cc3)NC(=O)[C@@H](C)NC(=O)[C@H](CC(C)C)NC(=O)[C@H](CCCCN)NC(=O)[C@H](Cc3ccc(-c4ccc(C(=O)O)cc4)cc3)NC(=O)CNC(=O)[C@@H](C)N(C)C(=O)[C@H](CC(=O)O)NC(=O)[C@H]([C@@H](C)c3cccc4ccccc34)NC(=O)[C@@H]3C[C@@H](N)CN3C(=O)CNC(=O)[C@H](Cc3ccc(C(=O)O)cc3)NC(=O)[C@H](Cc3c[nH]c4ccccc34)NC2=O)cc1
B9: SEQ ID NO: 115 (peptide)
peptide: cyclo([TyrEtNAc]W[Phe(4-COOH)]G[Pro(trans-4-NH2)][1Nal(3S-Me)]D[dNMeA]G[Bip(4'-COOH)]W[Dab][dA][hPhe])
SMILES: CC(=O)NCCOc1ccc(C[C@@H]2NC(=O)[C@H](CCc3ccccc3)NC(=O)[C@@H](C)NC(=O)[C@H](CCN)NC(=O)[C@H](Cc3c[nH]c4ccccc34)NC(=O)[C@H](Cc3ccc(-c4ccc(C(=O)O)cc4)cc3)NC(=O)CNC(=O)[C@@H](C)N(C)C(=O)[C@H](CC(=O)O)NC(=O)[C@H]([C@@H](C)c3cccc4ccccc34)NC(=O)[C@@H]3C[C@@H](N)CN3C(=O)CNC(=O)[C@H](Cc3ccc(C(=O)O)cc3)NC(=O)[C@H](Cc3c[nH]c4ccccc34)NC2=O)cc1

Biological target: Recombinant human IL-1β (BioLegend 579404) (human, UniProt P01584 117-269)
Assay: cell-based or functional assay

Going from B1 to B2, the “MRC5 IC50” value falls from 0.133 nM to 0.0775 nM (1.7-fold).

B3 and B4 are within 1.5-fold of each other in “MRC5 IC50” value: 0.0908 nM for the first, 0.0617 nM for the second.

Going from B5 to B6, the “MRC5 IC50” value falls from 0.0918 nM to 0.0233 nM (3.9-fold).

Going from B7 to B8, the “MRC5 IC50” value falls from 0.492 nM to 0.196 nM (2.5-fold).

In the case of B9, the “MRC5 IC50” value is reported as 0.085 nM.
